# Data taken from paper PMC4909229, “Characterization of Staphylococcus aureus Primosomal DnaD Protein: Highly Conserved C-Terminal Region Is Crucial for ssDNA and PriA Helicase Binding but Not for DnaA Protein-Binding and Self-Tetrameri”.
# T1: SaDnaD1-195 (Staphylococcus aureus subsp. aureus ED98, UniProt Q9EUT0 1-195, del196-228)
# T1 sequence: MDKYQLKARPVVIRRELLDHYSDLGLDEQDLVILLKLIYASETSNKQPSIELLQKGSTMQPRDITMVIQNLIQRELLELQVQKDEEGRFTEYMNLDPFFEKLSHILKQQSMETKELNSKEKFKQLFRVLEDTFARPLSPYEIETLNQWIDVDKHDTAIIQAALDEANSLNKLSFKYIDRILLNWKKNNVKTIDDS
# T2: SaDnaD1-204 (Staphylococcus aureus subsp. aureus ED98, UniProt Q9EUT0 1-204, del205-228)
# T2 sequence: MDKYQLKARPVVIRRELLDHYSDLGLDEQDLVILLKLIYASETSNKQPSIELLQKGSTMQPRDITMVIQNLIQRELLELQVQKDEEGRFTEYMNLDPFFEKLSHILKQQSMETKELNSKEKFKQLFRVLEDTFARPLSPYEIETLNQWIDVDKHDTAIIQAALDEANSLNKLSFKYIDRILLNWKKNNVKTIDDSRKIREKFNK
# T3: SaDnaD1-200 (Staphylococcus aureus subsp. aureus ED98, UniProt Q9EUT0 1-200, del201-228)
# T3 sequence: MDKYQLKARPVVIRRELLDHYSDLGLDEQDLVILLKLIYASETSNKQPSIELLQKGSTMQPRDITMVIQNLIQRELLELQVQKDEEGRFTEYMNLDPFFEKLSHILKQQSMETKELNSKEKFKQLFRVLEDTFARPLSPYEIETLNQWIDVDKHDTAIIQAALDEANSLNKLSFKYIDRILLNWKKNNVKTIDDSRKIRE
# B1: dT65 (ssDNA)
# DNA: TTTTTTTTTTTTTTTTTTTTTTTTTTTTTTTTTTTTTTTTTTTTTTTTTTTTTTTTTTTTTTTTT
# B2: dT40 (ssDNA)
# DNA: TTTTTTTTTTTTTTTTTTTTTTTTTTTTTTTTTTTTTTTT
# Assays:
# [1] = target: T1, SaDnaD1-195; assay: tryptophan fluorescence quenching; DNA:protein ratio 1; EMSA: 20 mM Tris-HCl pH 8.0, 100 mM NaCl, 25 C, 30 min, 1.7 nM DNA, gel at 4 C in TBE; fluorescence: 20 mM Tris-HCl pH 8.0, 200 or 500 mM NaCl, 0.1 uM tetramer; conditions: protein: recombinant; tags: C-terminal His tag (pET21e); chain copies: 4; label: 5'-32P (EMSA); unlabeled in fluorescence titration
# [2] = target: T2, SaDnaD1-204; assay: as above; conditions: protein: recombinant; tags: C-terminal His tag (pET21e); chain copies: 4; label: 5'-32P (EMSA); unlabeled in fluorescence titration
# [3] = target: T3, SaDnaD1-200; assay: as above; conditions: protein: recombinant; tags: C-terminal His tag (pET21e); chain copies: 4; label: 5'-32P (EMSA); unlabeled in fluorescence titration
# [4] = target: T1, SaDnaD1-195; assay: EMSA; EMSA: 20 mM Tris-HCl pH 8.0, 100 mM NaCl, 25 C, 30 min, 1.7 nM DNA, gel at 4 C in TBE; fluorescence: 20 mM Tris-HCl pH 8.0, 200 or 500 mM NaCl, 0.1 uM tetramer; conditions: protein: recombinant; tags: C-terminal His tag (pET21e); chain copies: 4; label: 5'-32P
# [5] = target: T3, SaDnaD1-200; assay: as above; conditions: protein: recombinant; tags: C-terminal His tag (pET21e); chain copies: 4; label: 5'-32P
Binder,binding signal [1] [% quenching],binding signal [2] [% quenching],binding signal [3] [% quenching],binding result [4],binding result [5]
B1,< 5,~20,< 10,–,–
B2,–,–,–,no binding,no binding
